Results published in patent US8114638B2, “Arabinitol dehydrogenase from Neurospora crassa” (The Board of Trustees of the University of Illinois, priority 2007, dated 2012).

Legend:
[1] = F59 mutant kinetic analysis, substrate adonitol; type: biochemical; details: 25° C., 50 mM Tris pH 8.0, NAD+ 2 mM
Protocol: (§1) Initial rates were determined using a Varian Cary 100 Bio UV-visible spectrophotometer (Varian) at 25° C. in 50 mM Tris (pH 8.0). […] This is the first reported detection of NADP^+ utilization by LAD, although it is still considered a strongly NAD^+-dependent enzyme. Kinetic measurements with substrate L-arabinitol and cofactor NAD^+ were taken in a 5-by-5 matrix format, with substrate and cofactor concentrations varied from below their Km to 10-fold higher than their Km. The kinetic data were analyzed with a modified version of Cleland's program (Cleland, W. W. (1979) Statistical analysis of enzyme kinetic data, Methods Enzymol 63, 103-138.). Vmax and Km for both L-arabinitol and NAD^+ were obtained by fitting the data to a sequential ordered mechanism with NAD^+ binding first, based on the proposed mechanism for sorbitol dehydrogenase (Lindstad et al. (1992) The kinetic mechanism of sheep liver sorbitol dehydrogenase, Eur J Biochem 210, 641-647.) v=VmaxAB/(KiaKB+KAB+KBA+AB) (EQ. 1)
(§2) Activity assays were run for three mutants of N. crassa LAD (F59A, F59S, and F59Y) to study the effect of mutation of this active site, putative substrate binding residue homologous to tyrosine in other SDHs. […]

[2] = Temperature dependence of LAD activity; type: biochemical
Protocol: The optimal temperature of activity was determined by assaying LAD activities at temperatures ranging from 12 to 65° C. […] (FIG. 2A). At higher temperatures, the enzyme inactivates rapidly, and at lowered temperatures, the rate increases with temperature according to the Arrhenius equation. Utilizing the Arrhenius equation to fit the data from 12 to 30° C., the energy of activation for L-arabinitol oxidation by N. crassa LAD was determined to be 49 kJ/mol. […] Thermal inactivation of N. crassa LAD was studied by incubating at 50° C. in 50 mM Tris (pH 8.0), with samples removed at various times and assayed for activity in saturating substrate conditions.

[3] = pH rate profile of LAD activity; type: biochemical; details: universal buffer, 2 mM NAD+, 200 mM L-arabinitol
Protocol: Activity was measured at pH values between 7.0 and 11.0 under saturating concentrations of NAD+ (2 mM) and L-arabinitol (200 mM) in a universal buffer (50 mM morpholineethanesulfonic acid (MES)/50 mM Tris/50 mM glycine). The pH range for N. crassa LAD activity was large, with >25% of the activity occurring with pH values of 7.0 to 11.0 (FIG. 2C). The pH optimum was around pH 9.5, and >60% of the activity remained in the pH span from 8.0 to 10.5.

[4] = Kinetic parameters of LAD from various source organisms; type: biochemical; details: for Specific activity: purified N. crassa LAD
Protocol: Initial rates were determined using a Varian Cary 100 Bio UV-visible spectrophotometer (Varian) at 25° C. in 50 mM Tris (pH 8.0). […] Kinetic measurements with substrate L-arabinitol and cofactor NAD^+ were taken in a 5-by-5 matrix format, with substrate and cofactor concentrations varied from below their Km to 10-fold higher than their Km. The kinetic data were analyzed with a modified version of Cleland's program (Cleland, W. W. (1979) Statistical analysis of enzyme kinetic data, Methods Enzymol 63, 103-138.). Vmax and Km for both L-arabinitol and NAD^+ were obtained by fitting the data to a sequential ordered mechanism with NAD^+ binding first, based on the proposed mechanism for sorbitol dehydrogenase (Lindstad et al. (1992) The kinetic mechanism of sheep liver sorbitol dehydrogenase, Eur J Biochem 210, 641-647.) v=VmaxAB/(KiaKB+KAB+KBA+AB) (EQ. 1)

[5] = Thermal inactivation and storage stability of LAD; type: physicochemical
[6] = Effect of GST-tag removal on specific activity; type: biochemical; details: 4° C. overnight
From the text: N. crassa RNA purification, reverse-transcription PCR, cloning, and N. crassa LAD expression are described in this example. […] The reverse transcription-PCR product was subcloned into pGEX-4T-3 vector (Amersham Biosciences) using EcoRI and NotI restriction sites and was transformed into Escherichia coli BL21(DE3). This construct (pGEX-lad1) encoded N. crassa LAD as an N-terminal glutathione S-transferase (GST)-tagged fusion with a thrombin cleavage site. Cell lysates of isopropyl-β-D-thiogalactopyranoside (IPTG) induced cultures of these cells were prepared, analyzed by SDS-PAGE, and assayed for LAD activities. The construct produced soluble GST-tagged N. crassa LAD at ˜16% of the total soluble cellular proteins (FIG. 1), which was then purified in a single step with a GST-Bind kit (Novagen) according to manufacturer's protocol. […] Protein concentrations were determined by the Bradford method and by using an estimated extinction coefficient (San Diego Supercomputer Center Biology Workbench) of 35.3 mM-1 cm-1 at 280 nm with similar results. The purity of the protein was analyzed by an SDS-PAGE gel stained with Coomassie brilliant blue (FIG. 1). […]
To determine the effect of removal of the GST-tag, the purified LAD was incubated with and without thrombin at 4° C. overnight. […] It was determined that removal of the GST-tag enhanced activity by about 65%. […]

[7] = F59 mutant kinetic analysis, substrate L-arabinitol; type: biochemical; details: 25° C., 50 mM Tris pH 8.0, NAD+ 2 mM
Protocol: as §1, §2

[8] = F59 mutant kinetic analysis, substrate xylitol; type: biochemical; details: 25° C., 50 mM Tris pH 8.0, NAD+ 2 mM
Protocol: as §1, §2

N. crassa LAD: NAD+-dependent L-arabinitol 4-dehydrogenase from Neurospora crassa, 363 residues, SEQ ID NO: 1, recombinantly expressed in E. coli
kcat (mean ± SD) [1]: 1,080 ± 30 min^−1
Km ([1]; read-out: Km (mean ± SD)): 35 ± 3 mM
energy of activation for L-arabinitol oxidation ([2]; Arrhenius fit of data from 12 to 30° C.): 11.7 kcal/mol
optimum temperature of activity ([2]; assayed from 12 to 65° C., 200 mM L-arabinitol, 2 mM NAD+): 45-55 °C
activity at pH values of 7.0 to 11.0 [3]: > 25%
activity remaining in the pH span from 8.0 to 10.5 [3]: > 60%
pH optimum [3]: ~9.5 pH
kcat ([4]; N. crassa LAD): 1,206 min^−1
Km ([4]; N. crassa LAD, read-out: Km,L-arabinitol): 16 mM
Km ([4]; N. crassa LAD, read-out: Km,NAD+): 0.174 mM
specific activity relative to H. jecorina LAD purified from S. cerevisiae heterologous expression ([4]; greater): ~20 fold
Specific activity [4]: about 31 U/mg
Specific activity ([4]; listed as N. crassa): 31 U/mg
stability to repeated freezing (in words) [5]: quite stable and does not markedly lose activity when frozen repeatedly
activity retained ([5]; 45° C., after 4 hr): ~60%
storage stability (in words) ([5]; room temperature and 4° C.): retained activity at room temperature for longer than one month and at 4 °C for several months
increase of specific activity of thrombin-cleaved LAD over GST-tagged LAD [6]: about 65%
kcat (mean ± SD) [7]: 1,210 ± 30 min^−1
kcat (mean ± SD) [8]: 16.2 ± 0.667 s⁻¹
